Measurements: US20240009241A1 (published 2024)

T1: EGFR L858R peptide on HLA-A*33:03 (human)
T1 peptide: HVKITDFGR

T2: EGFR L858R peptide on HLA-A*33:01 (human)
T2 peptide: HVKITDFGR


Experiments:
[1] = target: T1, EGFR L858R peptide on HLA-A*33:03; assay: multimer staining
[2] = target: T2, EGFR L858R peptide on HLA-A*33:01; assay: killing

Binder	binding result [1]	binding result [2]
EGFRA33 TCRA33-37-3 (TCR, V domains shown) Valpha: AQKITQTQPGMFVQEKEAVTLDCTYDTSDQSYGLFWYKQPSSGEMIFLIYQGSYDEQNATEGRYSLNFQKARKSANLVISASQLGDSAMYFCAMREVFGNEKLTFGTGTRLTIIP Vbeta: EEVAQTPKHLVRGEGQKAKLYCAPIKGHSYVFWYQQVLKNEFKFLISFQNENVFDETGMPKGRFSAKCLPNSPCSLEIQATKLEDSAVYFCASSHRSWKGGDTQPQHFGDGTRLSIL	recognises	
EGFRA33 TCRA33-37-4 (TCR, V domains shown) Valpha: AQKITQTQPGMFVQEKEAVTLDCTYDTSDPSYGLFWYKQPSSGEMIFLIYQGSYDQQNATEGRYSLNFQKARKSANLVISASQLGDSAMYFCAMRSGHLSNFGNEKLTFGTGTRLTIIP Vbeta: EEVAQTPKHLVRGEGQKAKLYCAPIKGHSYVFWYQQVLKNEFKFLISFQNENVFDETGMPKGRFSAKCLPNSPCSLEIQATKLEDSAVYFCASSHRSWKGGDTQPQHFGDGTRLSIL	recognises	
EGFRA33 TCR33-32L (TCR, V domains shown) Valpha: not shown Vbeta: GVIQSPRHEVTEMGQEVTLRCKPISGHNSLFWYRQTMMRGLELLIYFNNNVPIDDSGMPEDRFSAKMPNASFSTLKIQPSEPRDSAVYFCASRAGTGEVNEQFFGPGTRLTVL	recognises	
EGFRA33 TCRA33-32H (TCR, V domains shown) Valpha: QKITQTQPGMFVQEKEAVTLDCTYDTSDQSYGLFWYKQPSSGEMIFLIYQGSYDEQNATEGRYSLNFQKARKSANLVISASQLGDSAMYFCAMREVFGNEKLTFGTGTRLTIIP Vbeta: EEVAQTPKHLVRGEGQKAKLYCAPIKGHSYVFWYQQVLKNEFKFLISFQNENVFDETGMPKERFSAKCLPNSPCSLEIQATKLEDSAVYFCASSPPPSNTYNEQFFGPGTRLTVL	recognises	recognises
